Our source for the Kd values is paper PMC6923396.

Assay [1] deals with p62-UBA K420Q (for NMR) (mouse) (UniProt Q64337). Put plainly: NMR dilution series (1H-15N HSQC peak volumes of monomer and dimer); 15N-labeled p62-UBA diluted from 500 to 20 µM; 298 K, pH 6.0, 20 mM sodium acetate, 100 mM NaCl; dimer to monomers.
The target of assay [2] is p62-UBA K435Q (for NMR) (mouse) (UniProt Q64337). The assay is described as above.

As a reminder, the Kd is the constant that tells how readily two partners part at equilibrium. A high value points to a looser complex. The substance “p62-UBA K420Q (for NMR) (from UniProt Q64337-1 391-436) (domain or fragment)” had a Kd in assay [1] of 41.2 µM.

Substance “p62-UBA K435Q (for NMR) (from UniProt Q64337-1 391-437) (domain or fragment)” yielded a Kd in assay [2] of 15.5 µM.
